Experimental data reported in patent US20180125924A1 (NORTHWESTERN UNIVERSITY, published 2018).
Groups on a side chain read outwards from the residue. No end group written: not given here. *: point of attachment. triazole = 1,2,3-triazole formed by click reaction linking the lysine-side-chain spacer to the azidoethyl glycoside; Palmitoyl = CCCCCCCCCCCCCCCC(=O)*

Biological target: recombinant human BMP-2 obtained from Medtronic Sofamor Danek (human, UniProt P12643 283-396)
Assay: cell-based or functional assay

Chain of recombinant human BMP-2 obtained from Medtronic Sofamor Danek (P12643 283-396 limits assumed): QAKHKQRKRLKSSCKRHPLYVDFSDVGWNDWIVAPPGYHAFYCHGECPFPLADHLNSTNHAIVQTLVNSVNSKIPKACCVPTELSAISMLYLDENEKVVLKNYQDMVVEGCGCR

B1: 3,4,6S-GlcNAc PA (PA 1) nanofibers (peptide)
peptide: Palmitoyl-VVAAEEK([COCH2(O(CH2)2)2NHCO(CH2)2-triazole-ethyl-2‑acetamido‑3,4,6‑tri‑O‑sulfo‑2‑deoxy‑beta‑D‑glycopyranoside])
modifications: also: self-assembled nanofibers
  ALP activity in C2C12 cells treated with BMP-2 (75 ng/mL) and PA nanofibers (25 uM): 9 fold
